Test results as given in the supplement of paper PMC9170038.

System: MS2 coat protein
Experiment: apparent KD of MS2 coat protein; designed switch direction (-1 OFF switch, 1 ON switch): 1; higher = weaker reporter binding
Method in brief: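 Designed RNA switches were transcribed on Illumina chips by stalled E. coli RNA polymerase and titrated with SNAP-549-labelled MS2 coat protein from 0.7 or 1.5 nM, doubling to 3 µM. Step length ran from 0.8–1.5 h at the lowest concentration to 10–20 min at the highest. The apparent KD is the median over clusters for each design, from curve-fitted normalised cluster fluorescence.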

[1] = input ligand: microRNA oligo, concentration not stated
[2] = Eterna round: R95, input ligand: FMN 200 uM
[3] = Eterna round: R95, input ligand: microRNA oligo, concentration not stated
[4] = Eterna round: R95, input ligand: none

Sequence | apparent KD of MS2 coat protein (input ligand: FMN 200 uM) [nM] | apparent KD of MS2 coat protein [1] [nM] | apparent KD of MS2 coat protein (input ligand: none) [nM] | apparent KD of MS2 coat protein [2] [nM] | apparent KD of MS2 coat protein [3] [nM] | apparent KD of MS2 coat protein [4] [nM]
AGCUAGUACCGAGGAUAUACGUACAUGAGGAUCACCCAUGUAUACAUGAAAUAAUGAGACUACAUGUAGAAGGCGGUACUAGCA [Mat - Same State NG 2 - JL mod - D50] (Eterna round: R96, puzzle: Same State NG 2) | 14.2 | 33.5 | 48.7 | – | – | –
AGCUAUCGAAAACGAUAGCAAAAGCGUGUACAUGAGGAUCACCCAUGUCAUGUACAAGCUUUUUGCUCGUCUUAAAA [Zipper 23 - 6] (puzzle: Sensor for hsa-mir-208a) | – | – | – | 34 | 14.4 | 41.8
AGCUAUCGAAAACGAUAGCAUAAGCAUGUACAUGAGGAUCACCCAUGUCAUGUACAAGCUUUUUGCUCGUCUUAAAA [JL zipper 27] (Eterna round: R96, puzzle: Sensor for hsa-mir-208a) | 411 | 14.3 | 426 | – | – | –
AGCUAUUAAUCAGGAUAUAGGGACAUGAGGAUCACCCAUGUAUACAUGAUGAAAUGUGAUCACGUCUAGAAGGGAUUACUAACA [SameState NG2 #40] (Eterna round: R96, puzzle: Same State NG 2) | 236 | 299 | 134 | – | – | –
AGCUAUUAAUCAGGAUAUAGGGACAUGAGGAUCACCCAUGUAUACAUGAUGAAAUGUGGUCACGUCUAGAAGGGAUUACUAACA [SameState NG2 #41] (Eterna round: R96, puzzle: Same State NG 2) | 150 | 184 | 262 | – | – | –
AGCUAUUAAUCAGGAUAUGGUCACAUGAGGAUCACCCAUGUGUAGAUGAUAAAAUGUGGUCAAGACUAGAAGGGAUUGCUAACA [SameState NG2 #62] (Eterna round: R96, puzzle: Same State NG 2) | 125 | 49.3 | 95.9 | – | – | –
AGCUAUUACGCAGGAUAUAGGGACAUGAGGAUCACCCAUGUGUACAUGAGUAAAUGUGAUCACGUCUAGAAGGGUGUACUAACA [SameState NG2 #37] (Eterna round: R96, puzzle: Same State NG 2) | 684 | 326 | 321 | – | – | –
AGCUGUGGAAAACUAUAGCAAAAGUAUGUACAUGAGGAUCACCCAUGUCAUGUACAAGCUUUUUGCUCGUCUUAAAA [ak 5 mod of one Eli's designs.] (puzzle: Sensor for hsa-mir-208a) | – | – | – | 42.4 | 18.7 | 90.4
AGGAAACAUGAGGAUCACCCAUGUAUCGAGCCGCGAGGAUAUGGGUAUCAAAGGCGAGGAUCAGAAGGUGCAGGCG [Eseddierve] (puzzle: Same State 1) | – | – | – | 235 | 54.9 | 153
AGGCUCAGACGAGGAUAUAUGUCUCGAGCUUCGGCUCGAGACAUGAGGAUCACCCAUGUAAUAACAUAGAAGGCGUCUGAGCCA [SSNG2/1-A1] (Eterna round: R96, puzzle: Same State NG 2) | 15.7 | 24.9 | 37 | – | – | –
AGGCUCAGACGAGGAUAUGGUCAUGGCGCUUCGGCGCAUACAUGAGGAUCACCCAUGUAGGGUGAUCAGAAGGUGUCUGAGCCA [SSNG2/9-B1] (Eterna round: R96, puzzle: Same State NG 2) | 171 | 720 | 892 | – | – | –
AGUAGUUUAACAUGAGGAUCACCCAUGUAUCUAUCUGUAACCUAGGAUAUGGACGUUGUAUUUAACCAGAAGGAGGAUCGUUUA [JR_SSNG3_Sub046] (Eterna round: R96, puzzle: Same State NG 3) | – | 22.7 | – | – | – | –
AGUCCAGCAUGAGCUGGACAAAAGCAUGUACAUGAGGAUCACCCAUGUCAUGUACAAGCUUUUUGCUCGUCUUAAAA [Mat - hsa-mir-208a - Mod of JL - D1] (puzzle: Sensor for hsa-mir-208a) | – | – | – | 512 | 16.7 | 627
AGUCCAGCAUGAGCUGGACAAAAGCAUGUACAUGAGGAUCACCCAUGUUCAUGUACAAGCUUUUUGCUCGUCUUAAG [Mat - hsa-mir-208a - Mod of JL - 63] (puzzle: Sensor for hsa-mir-208a) | – | – | – | 568 | 18 | 802
AGUCCAGCCUGAGCUGGACAAAAGCAUGUACAUGAGGAUCACCCAUGUCAUGUACAAGCUUUUUGUUCGUCUUAAUA [Zipper 49 - 13] (puzzle: Sensor for hsa-mir-208a) | – | – | – | 258 | 14.6 | 350
AGUCCAGCCUGAGCUGGACAAAAGCAUGUACAUGAGGAUCACCCAUGUUCAUGUACAAGCUUUUUGCUCGUCUUAGG [salish99_208a_r3_062] (puzzle: Sensor for hsa-mir-208a) | – | – | – | 375 | 21.8 | 686

Sequence | apparent KD of MS2 coat protein (input ligand: FMN 200 uM) [nM] | apparent KD of MS2 coat protein [1] [nM] | apparent KD of MS2 coat protein (input ligand: none) [nM] | apparent KD of MS2 coat protein [2] [nM] | apparent KD of MS2 coat protein [3] [nM] | apparent KD of MS2 coat protein [4] [nM]
AGUCCAGCCUGAGCUGGACAAAAGCAUGUACAUGAGGAUCACCCAUGUUCAUGUACAAGCUUUUUGCUCGUCUUAUC [salish99_208a_r3_058] (puzzle: Sensor for hsa-mir-208a) | – | – | – | 578 | 16.6 | 677
AGUCCAGCCUGAGCUGGACAAAAGCAUGUACAUGAGGAUCACCCAUGUUCAUGUACAAGCUUUUUGCUCGUCUUGGA [salish99_208a_r3_103x] (puzzle: Sensor for hsa-mir-208a) | – | – | – | 350 | 16.2 | 505
AGUCCAGCCUGAGCUGGACAAAAGCAUGUACAUGAGGAUCACCCAUGUUCAUGUAUAAGCUUUUUGCUCGUCUUAAA [Zipper 52 - 11] (puzzle: Sensor for hsa-mir-208a) | – | – | – | 18.5 | 10.2 | 17.2
AGUCCAGCCUGAGCUGGACAAAAGCGUGUACAUGAGGAUCACCCAUGUCAUGUACAAGCUUUUUGCUCGUCUUAAUA [Zipper 49 - 6] (puzzle: Sensor for hsa-mir-208a) | – | – | – | 106 | 21.2 | 83.1
AGUCCAGCGAGAGCUGGACAAAAGCAUGUACAUGAGGAUCACCCAUGUCAUGUACAAGCUUUUUGCUCGUCUUAAAA [Mat - hsa-mir-208a - Mod of JL - D5] (puzzle: Sensor for hsa-mir-208a) | – | – | – | 332 | 13.5 | 618
AUAAAACAUGAGGAUCACCCAUGUCAACAAAGUCGAGGAUAUGGGCAAAUAAAAUAAGAACCAGAAGGCGUAUAAU [salish99_ss1_r3_034] (puzzle: Same State 1) | – | – | – | – | 341 | –
AUAAAACAUGAGGAUCACCCAUGUCAACAAAGUCGAGGAUAUGGGCAAAUAAAAUAAGUACCAGAAGGCGAAUAAU [salish99_ss1_r3_017] (puzzle: Same State 1) | – | – | – | 34.1 | 106 | 108
AUAAAACAUGAGGAUCACCCAUGUCAACAAAGUCGAGGAUAUUGGCAAAUAAAAUAAGAACCAGAAGGCGAAUAAU [salish99_ss1_r3_050] (puzzle: Same State 1) | – | – | – | 17.5 | 23.1 | 23.4
AUAAAACAUGAGGAUCACCCAUGUCUCCAAAGUCGAGGAUAUGGGCAAAUAAUAUAAGAACCAGAAGGCGAAUAAU [SS1 Teenbexe 2] (puzzle: Same State 1) | – | – | – | 177 | 179 | 374
AUAAAUAACACAGGAUAUCCGCACGGGUAGUGCGGAGAAGGGUGAACGUCGGCUCUCGCCAACAUGAGGAUCACCCAUGUAAAG [Letiusle] (Eterna round: R96, puzzle: Same State NG 1) | 512 | 27.7 | 41.1 | – | – | –
AUCAAAAGAGGAGGAUAUGCAGAGGAUCACCCUGUAGAAGGCCACAGAGGAGGAUAUGCAGAGGAUCACCCUGUAGAAGGCCUC [pwkr ssNG DX.16] (Eterna round: R96, puzzle: Same State NG 1) | 37.3 | 156 | 189 | – | – | –
AUCCGGAAGCGAGGAUAUGCAGAGGAUCACCCUGCAGAAGGCGCGAUCGCGAGGAUAUGCAGAGGAUCACCCUGCAGAAGGCGC [pwkr ssNG DX.31] (Eterna round: R96, puzzle: Same State NG 1) | 15.5 | 20.3 | 25.1 | – | – | –
AUCCUAAACACAGGAUAUCCCAGUCAUGAUCUGGGAGAAGGGUGGCCACAUGAGGAUCACCCAUGUGAAGUGCCAGAGGCACGA [MOD3 Xexeraed] (Eterna round: R96, puzzle: Same State NG 1) | 397 | 359 | 582 | – | – | –
AUGAAGAAUUAAGGAUAUUGAUUACAUAUGUUUAACAUGAGGAUCACCCAUGUGGGUUGCGGUAUCGAGAAGGUAAAUUACUAG [JL SSNG2 1.48] (Eterna round: R96, puzzle: Same State NG 2) | 150 | 99.6 | 128 | – | – | –
AUGCCAAAUGGAGGAUAUGGAGCCUUAUUGGCUCCAGAAGGUCAGACAUGAGGAUCACCCAUGUGGCAGUGGUCUAAUGACCAC [Eli NG1ss - 39] (Eterna round: R96, puzzle: Same State NG 1) | 126 | 392 | 638 | – | – | –
